The values below come from the supplement of paper PMC9112550, “Optimization of the antimicrobial peptide Bac7 by deep mutational scanning” (BMC Biology, 2022).
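Further: peptides expressed intracellularly from a pBAD plasmid library in pooled LB shake-flask culture, induced with 0.3% L-arabinose, DNA abundance read by NGS, three biological replicates, DESeq2 with apeglm shrinkage.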

The data set deals with Escherichia coli TOP10. As to the kind of experiment: shrunken log2 fold change of peptide-encoding DNA abundance (4.5 h post-induction vs induction); higher = less antimicrobial activity (less host growth inhibition). To be noted: time post-induction: 4.5 h; library: site-saturation at positions 5, 18, 19, 20.
For the sequence RRIRMRPPRLPRPRPRPRVIPRP, the “shrunken log2 fold change” value amounted to 0.477. Regarding RRIRRRPPRLPRPRPRPCMLPRP, the “shrunken log2 fold change” value is -0.151. For the sequence RRIRSRPPRLPRPRPRPYINPRP, the “shrunken log2 fold change” value is -0.879. To RRIRLRPPRLPRPRPRPGVNPRP belongs 0.0348; to RRIRFRPPRLPRPRPRPWIRPRP, -0.205; to RRIRERPPRLPRPRPRPDTNPRP, -0.183. RRIRWRPPRLPRPRPRPTVRPRP: the “shrunken log2 fold change” value worked out at 1.14. In the case of RRIRCRPPRLPRPRPRPLEYPRP, the “shrunken log2 fold change” value was -0.0414. To RRIRNRPPRLPRPRPRPNMCPRP belongs -0.0592. Take RRIRTRPPRLPRPRPRPQWNPRP: the “shrunken log2 fold change” value was -0.832. The same measure for RRIRERPPRLPRPRPRPQEGPRP: 0.0271; for RRIRLRPPRLPRPRPRPASCPRP: 0.117.

In the case of RRIRIRPPRLPRPRPRPAPTPRP, the “shrunken log2 fold change” value is 0.219. Turning to RRIRERPPRLPRPRPRPGSVPRP, the “shrunken log2 fold change” value worked out at 0.00838. Consider RRIRERPPRLPRPRPRPWIWPRP, for which the “shrunken log2 fold change” value came to 0.164. To RRIRFRPPRLPRPRPRPQPQPRP belongs 0.301.

In the case of RRIRMRPPRLPRPRPRPRDPPRP, the “shrunken log2 fold change” value worked out at 0.705. To RRIRIRPPRLPRPRPRPDSPPRP belongs -0.0466; to RRIRNRPPRLPRPRPRPNYSPRP, -0.364.

Take RRIRRRPPRLPRPRPRPSRAPRP: the “shrunken log2 fold change” value was 0.369. To RRIRRRPPRLPRPRPRPRWNPRP belongs 0.326; to RRIRRRPPRLPRPRPRPDHIPRP, 0.0664. The same measure for RRIRCRPPRLPRPRPRPDSWPRP: -0.115; for RRIRLRPPRLPRPRPRPCCIPRP: -0.0547; for RRIRGRPPRLPRPRPRPPPWPRP: 1.41. With RRIRMRPPRLPRPRPRPFILPRP, the “shrunken log2 fold change” value was -0.41. The same measure for RRIRHRPPRLPRPRPRPSLRPRP: -0.244; for RRIRYRPPRLPRPRPRPSLGPRP: -0.297; for RRIRIRPPRLPRPRPRPLDWPRP: -0.418. To RRIRSRPPRLPRPRPRPQLVPRP belongs 0.0331; to RRIRHRPPRLPRPRPRPQYTPRP, -1.27. In the case of RRIRKRPPRLPRPRPRPWDNPRP, the “shrunken log2 fold change” value turned out to be 0.0448.

As to RRIRCRPPRLPRPRPRPWVYPRP, the “shrunken log2 fold change” value was -0.0957. To RRIRIRPPRLPRPRPRPHPFPRP belongs -0.583; to RRIRERPPRLPRPRPRPHESPRP, 0.0153.

As to RRIRYRPPRLPRPRPRPTHPPRP, the “shrunken log2 fold change” value was -0.311. The same measure for RRIRMRPPRLPRPRPRPWGHPRP: 0.0533. To RRIRVRPPRLPRPRPRPPCPPRP belongs 0.0333. RRIRTRPPRLPRPRPRPFLKPRP: the “shrunken log2 fold change” value came to 0.092. The same measure for RRIRMRPPRLPRPRPRPFNPPRP: -1.51; for RRIRFRPPRLPRPRPRPVWFPRP: -0.182; for RRIRCRPPRLPRPRPRPYCVPRP: -0.517. On to RRIRQRPPRLPRPRPRPMMRPRP, for which the “shrunken log2 fold change” value was found to be 0.109. With RRIRMRPPRLPRPRPRPNKYPRP, the “shrunken log2 fold change” value is -0.148.

RRIRMRPPRLPRPRPRPNWLPRP: the “shrunken log2 fold change” value was 0.286. Take RRIRQRPPRLPRPRPRPILHPRP: the “shrunken log2 fold change” value was -1.25. As to RRIRFRPPRLPRPRPRPAPCPRP, the “shrunken log2 fold change” value was 0.294. To RRIRGRPPRLPRPRPRPKYTPRP belongs 0.101; to RRIRTRPPRLPRPRPRPNECPRP, -0.0286; to RRIRNRPPRLPRPRPRPMRPPRP, 0.537. As to RRIRLRPPRLPRPRPRPEGDPRP, the “shrunken log2 fold change” value stood at 0.0662. To RRIRSRPPRLPRPRPRPAIRPRP belongs -0.0385; to RRIRSRPPRLPRPRPRPMQIPRP, 0.141. As for RRIRPRPPRLPRPRPRPGTWPRP, the “shrunken log2 fold change” value stood at 0.0893.

RRIRIRPPRLPRPRPRPTFPPRP: the “shrunken log2 fold change” value was -0.316. The same measure for RRIRTRPPRLPRPRPRPAESPRP: 0.0351; for RRIRLRPPRLPRPRPRPEIYPRP: -0.0581. For the sequence RRIRQRPPRLPRPRPRPAYKPRP, the “shrunken log2 fold change” value was -0.534.

In the case of RRIRSRPPRLPRPRPRPWLEPRP, the “shrunken log2 fold change” value is -0.0707. For the sequence RRIRMRPPRLPRPRPRPTYEPRP, the “shrunken log2 fold change” value was -0.16.

Regarding RRIRYRPPRLPRPRPRPIRAPRP, the “shrunken log2 fold change” value came to 0.0501. To RRIRTRPPRLPRPRPRPFWSPRP belongs -0.178; to RRIRARPPRLPRPRPRPMCPPRP, 0.0408. To RRIRMRPPRLPRPRPRPIIAPRP belongs 0.0852; to RRIRHRPPRLPRPRPRPTQHPRP, -0.0131; to RRIRQRPPRLPRPRPRPNTEPRP, -0.0119. To RRIRPRPPRLPRPRPRPLSSPRP belongs 0.00895; to RRIRLRPPRLPRPRPRPYSVPRP, 0.0375; to RRIRFRPPRLPRPRPRPAPIPRP, 0.108. With RRIRCRPPRLPRPRPRPATEPRP, the “shrunken log2 fold change” value is 0.309. To RRIRPRPPRLPRPRPRPSSLPRP belongs 0.0404; to RRIRFRPPRLPRPRPRPLGVPRP, 0.0349; to RRIRPRPPRLPRPRPRPKIGPRP, 0.0118. To RRIRWRPPRLPRPRPRPEEVPRP belongs -0.0142. To RRIRTRPPRLPRPRPRPHIMPRP belongs -0.738; to RRIRERPPRLPRPRPRPVSRPRP, 0.23.

Take RRIRNRPPRLPRPRPRPNEIPRP: the “shrunken log2 fold change” value amounted to 0.145. As for RRIRWRPPRLPRPRPRPEVSPRP, the “shrunken log2 fold change” value was 0.269. The same measure for RRIRYRPPRLPRPRPRPRKMPRP: -0.178; for RRIRLRPPRLPRPRPRPLPLPRP: 0.338; for RRIRQRPPRLPRPRPRPGDAPRP: 1.65. In the case of RRIRNRPPRLPRPRPRPQPDPRP, the “shrunken log2 fold change” value was -0.0718. The same measure for RRIRFRPPRLPRPRPRPRRCPRP: 0.143; for RRIRKRPPRLPRPRPRPHTDPRP: -0.0857; for RRIRQRPPRLPRPRPRPFAWPRP: -0.0355. To RRIRPRPPRLPRPRPRPRFWPRP belongs 0.579; to RRIRARPPRLPRPRPRPGNEPRP, 0.215. The same measure for RRIRARPPRLPRPRPRPTFRPRP: 0.323. As for RRIRLRPPRLPRPRPRPDQDPRP, the “shrunken log2 fold change” value is -0.218. As to RRIRDRPPRLPRPRPRPNAEPRP, the “shrunken log2 fold change” value worked out at 0.359. The same measure for RRIRLRPPRLPRPRPRPMVQPRP: -0.147. To RRIRLRPPRLPRPRPRPLRWPRP belongs 0.524; to RRIRLRPPRLPRPRPRPMKGPRP, 0.0527. The same measure for RRIRTRPPRLPRPRPRPGMKPRP: -0.0344; for RRIRGRPPRLPRPRPRPHWQPRP: 0.258; for RRIRMRPPRLPRPRPRPVIKPRP: -0.0254. As for RRIRYRPPRLPRPRPRPRGFPRP, the “shrunken log2 fold change” value is -0.0875.

Take RRIRARPPRLPRPRPRPTKAPRP: the “shrunken log2 fold change” value came to 0.437.

Regarding RRIRYRPPRLPRPRPRPVFMPRP, the “shrunken log2 fold change” value was -0.484. In the case of RRIRGRPPRLPRPRPRPAKMPRP, the “shrunken log2 fold change” value is 0.538. To RRIRHRPPRLPRPRPRPEGKPRP belongs 0.082. To RRIRTRPPRLPRPRPRPYQQPRP belongs 0.0675; to RRIRARPPRLPRPRPRPDDDPRP, 0.257.

On to RRIRTRPPRLPRPRPRPWACPRP, for which the “shrunken log2 fold change” value is -0.151.

As to RRIRHRPPRLPRPRPRPFCLPRP, the “shrunken log2 fold change” value was -0.262.

As for RRIRERPPRLPRPRPRPPPSPRP, the “shrunken log2 fold change” value is 0.415. As to RRIRHRPPRLPRPRPRPPWKPRP, the “shrunken log2 fold change” value turned out to be 0.174. Consider RRIRVRPPRLPRPRPRPACKPRP, for which the “shrunken log2 fold change” value is -0.0847. For RRIRNRPPRLPRPRPRPDVWPRP, the “shrunken log2 fold change” value is -0.0172.

For RRIRERPPRLPRPRPRPVLTPRP, the “shrunken log2 fold change” value is -0.126. To RRIRRRPPRLPRPRPRPMMKPRP belongs 0.324; to RRIRPRPPRLPRPRPRPYYGPRP, -0.271; to RRIRHRPPRLPRPRPRPTAVPRP, -0.295.

Turning to RRIRFRPPRLPRPRPRPNMDPRP, the “shrunken log2 fold change” value was determined as 1.48. To RRIRYRPPRLPRPRPRPNCSPRP belongs -0.973; to RRIRGRPPRLPRPRPRPHYKPRP, -0.0643; to RRIRWRPPRLPRPRPRPHLVPRP, 0.392. Turning to RRIRARPPRLPRPRPRPDGWPRP, the “shrunken log2 fold change” value amounted to 1.22. To RRIRMRPPRLPRPRPRPGNLPRP belongs 0.0466; to RRIRVRPPRLPRPRPRPLDFPRP, -0.147; to RRIRQRPPRLPRPRPRPPHSPRP, 0.511.

In the case of RRIRGRPPRLPRPRPRPPGEPRP, the “shrunken log2 fold change” value worked out at 1.14.

Take RRIRPRPPRLPRPRPRPFPAPRP: the “shrunken log2 fold change” value was -0.161. To RRIRVRPPRLPRPRPRPNYRPRP belongs 0.0968; to RRIRVRPPRLPRPRPRPGQVPRP, 0.0448.
